In patent US20260256915A1 (published 2026):
Where a chain is given by its changes, count along the chain named.

T1: PRAME peptide on HLA-A*02:01 (human)
T1 peptide: SLLQHLIGL

B1: nwTCR-2316 (TCR, V domains shown)
Valpha: TQLLEQSPQFLSIQEGENLTVYCNSSSVFSSLQWYRQEPGEGPVLLVTVVTGGEVKKLKRLTFQFGDARKDSSLHITAAQPGDTGLYLCAGVDNYGQNFVFGPGTRLSVLP
Vbeta: DAGVIQSPRHEVTEMGQEVTLRCKPISGHNSLFWYRQTMMRGLELLIYFNNNVPIDDSGMPEDRFSAKMPNASFSTLKIQPSEPRDSAVYFCASSIAALGFGELFFGEGSRLTVL
B2: nwTCR-2614 (TCR, V domains shown)
Valpha: AQTVTQSQPEMSVQEAETVTLSCTYDTSENNYYLFWYKQPPSRQMILVIRQEAYKQQNATENRFSVNFQKAAKSFSLKISDSQLGDTAMYFCAFDNNARLMFGDGTQLVVKP
Vbeta: GAVVSQHPSWVICKSGTSVKIECRSLDFQATTMFWYRQFPKQSLMLMATSNEGSKATYEQGVEKDKFLINHASLTLSTLTVTSAHPEDSSFYICSATRDSSYNEQFFGPGTRLTVL
B3: nwTCR-1906 (TCR, V domains shown)
Valpha: RKEVEQDPGPFNVPEGATVAFNCTYSNSASQSFFWYRQDCRKEPKLLMSVYSSGNEDGRFTAQLNRASQYISLLIRDSKLSDSATYLCVVTQAGTALIFGKGTTLSVSS
Vbeta: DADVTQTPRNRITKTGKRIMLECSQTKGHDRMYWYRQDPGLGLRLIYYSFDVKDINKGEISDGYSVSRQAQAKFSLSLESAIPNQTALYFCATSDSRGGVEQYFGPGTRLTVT
B4: nwTCR-2006 (TCR, V domains shown)
Valpha: AQSVTQLDSHVSVSEGTPVLLRCNYSSSYSPSLFWYVQHPNKGLQLLLKYTSAATLVKGINGFEAEFKKSETSFHLTKPSAHMSDAAEYFCVVSITGFQKLVFGTGTRLLVSP
Vbeta: GAVVSQHPSRVICKSGTSVKIECRSLDFQATTMFWYRQFPKQSLMLMATSNEGSKATYEQGVEKDKFLINHASLTLSTLTVTSAHPEDSSFYICSATEDNEKLFFGSGTQLSVL
B5: nwTCR-2555 (TCR, V domains shown)
Valpha: AQSVSQHNHHVILSEAASLELGCNYSYGGTVNLFWYVQYPGQHLQLLLKYFSGDPLVKGIKGFEAEFIKSKFSFNLRKPSVQWSDTAEYFCAVKMDSSYKLIFGSGTRLLVRP
Vbeta: DGGITQSPKYLFRKEGQNVTLSCEQNLNHDAMYWYRQDPGQGLRLIYYSQIVNDFQKGDIAEGYSVSREKKESFPLTVTSAQKNPTAFYLCASLGLNYNEQFFGPGTRLTVL
B6: nwTCR-2170 (TCR, V domains shown)
Valpha: GQQLNQSPQSMFIQEGEDVSMNCTSSSIFNTWLWYKQDPGEGPVLLIALYKAGELTSNGRLTAQFGITRKDSFLNISASIPSDVGIYFCAGQASGTYKYIFGTGTRLKVLA
Vbeta: EAQVTQNPRYLITVTGKKLTVTCSQNMNHEYMSWYRQDPGLGLRQIYYSMNVEVTDKGDVPEGYKVSRKEKRNFPLILESPSPNQTSLYFCASSSGTSDEQYFGPGTRLTVT
B7: nwTCR-2719 (TCR, V domains shown)
Valpha: GIQVEQSPPDLILQEGANSTLRCNFSDSVNNLQWFHQNPWGQLINLFYIPSGTKQNGRLSATTVATERYSLLYISSSQTTDSGVYFCAVLAPGTYKYIFGTGTRLKVLA
Vbeta: B6 Vbeta with S95W, T97S, S98G, D99Y
B8: nwTCR-2285 (TCR, V domains shown)
Valpha: KNEVEQSPQNLTAQEGEFITINCSYSVGISALHWLQQHPGGGIVSLFMLSSGKKKHGRLIATINIQEKHSSLHITASHPRDSAVYICALNSDSNYQLIWGAGTKLIIKP
Vbeta: B6 Vbeta with S93T, S95P, S98L, D99Y
B9: nwTCR-2583 (TCR, V domains shown)
Valpha: GQSLEQPSEVTAVEGAIVQINCTYQTSGFYGLSWYQQHDGGAPTFLSYNALDGLEETGRFSSFLSRSDSYGYLLLQELQMKDSASYFCALGTEDKIIFGKGTRLHILP
Vbeta: EAQVTQNPRYLITVTGKKLTVTCSQNMNHEYMSWYRQDPGLGLRQIYYSMNVEVTDKGDVPEGYKVSRKEKRNFPLILESPSPNQTSLYFCASRISLGANYGYTFGSGTRLTVV
B10: nwTCR-2159 (TCR, V domains shown)
Valpha: QQPVQSPQAVILREGEDAVINCSSSKALYSVHWYRQKHGEAPVFLMILLKGGEQKGHDKISASFNEKKQQSSLYLTASQLSYSGTYFCGTESGRGSTLGRLYFGRGTQLTVWP
Vbeta: DSGVTQTPKHLITATGQRVTLRCSPRSGDLSVYWYQQSLDQGLQFLIQYYNGEERAKGNILERFSAQQFPDLHSELNLSSLELGDSALYFCASSPWTSGSYEQYFGPGTRLTVT
B11: nwTCR-2418 (TCR, V domains shown)
Valpha: DQQVKQNSPSLSVQEGRISILNCDYTNSMFDYFLWYKKYPAEGPTFLISISSIKDKNEDGRFTVFLNKSAKHLSLHIVPSQPGDSAVYFCAASGVRGQNFVFGPGTRLSVLP
Vbeta: B10 Vbeta with T97L, S98A, S100G, Y101R
B12: nwTCR-2286 (TCR, V domains shown)
Valpha: GQQLNQSPQSMFIQEGEDVSMNCTSSSIFNTWLWYKQDPGEGPVLLIALYKAGELTSNGRLTAQFGITRKDSFLNISASIPSDVGIYFCAGPEDDKIIFGKGTRLHILP
Vbeta: B10 Vbeta with T97L, S98Q, S100G, Y101N, Y104F, T114L
B13: nwTCR-2718 (TCR, V domains shown)
Valpha: GQQLNQSPQSMFIQEGEDVSMNCTSSSIFNTWLWYKQDPGEGPVLLIALYKAGELTSNGRLTAQFGITRKDSFLNISASIPSDVGIYFCAGFSQGGSEKLVFGKGTKLTVNP
Vbeta: B10 Vbeta with S98A, S100G, Y101N, E102T, Q103I, P107E, T109S, R110W, T114V
B14: nwTCR-2157 (TCR, V domains shown)
Valpha: QKEVEQNSGPLSVPEGAIASLNCTYSDRGSQSFFWYRQYSGKSPELIMFIYSNGDKEDGRFTAQLNKASQYVSLLIRDSQPSDSATYLCAVPGGTSYGKLTFGQGTILTVHP
Vbeta: DTAVSQTPKYLVTQMGNDKSIKCEQNLGHDTMYWYKQDSKKFLKIMFSYNNKELIINETVPNRFSPKSPDKAHLNLHINSLELGDSAVYFCASSQGISGNTIYFGEGSWLTVV
B15: nwTCR-2523 (TCR, V domains shown)
Valpha: RKEVEQDPGPFNVPEGATVAFNCTYSNSASQSFFWYRQDCRKEPKLLMSVYSSGNEDGRFTAQLNRASQYISLLIRDSKLSDSATYLCVVNRGSQGNLIFGKGTKLSVKP
Vbeta: DAGVTQSPTHLIKTRGQQVTLRCSPKSGHDTVSWYQQALGQGPQFIFQYYEEEERQRGNFPDRFSGHQFPNYSSELNVNALLLGDSALYLCASSLVDYEQYFGPGTRLTVT
B16: nwTCR-2081 (TCR, V domains shown)
Valpha: GEDVEQSLFLSVREGDSSVINCTYTDSSSTYLYWYKQEPGAGLQLLTYIFSNMDMKQDQRLTVLLNKKDKHLSLRIADTQTGDSAIYFCAESVGYGGSQGNLIFGKGTKLSVKP
Vbeta: KAGVTQTPRYLIKTRGQQVTLSCSPISGHRSVSWYQQTPGQGLQFLFEYFSETQRNKGNFPGRFSGRQFSNSRSEMNVSTLELGDSALYLCASSLEAGSFYEQYFGPGTRLTVT
B17: nwTCR-1953 (TCR, V domains shown)
Valpha: DAKTTQPNSMESNEEEPVHLPCNHSTISGTDYIHWYRQLPSQGPEYVIHGLTSNVNNRMASLAIAEDRKSSTLILHRATLRDAAVYYCILRAGGSGDKLTFGTGTRLAVRP
Vbeta: DTEVTQTPKHLVMGMTNKKSLKCEQHMGHRAMYWYKQKAKKPPELMFVYSYEKLSINESVPSRFSPECPNSSLLNLHLHALQPEDSALYLCASSQDPFWGAGELFFGEGSRLTVL
B18: nwTCR-1954 (TCR, V domains shown)
Valpha: QKEVEQNSGPLSVPEGAIASLNCTYSDRGSQSFFWYRQYSGKSPELIMSIYSNGDKEDGRFTAQLNKASQYVSLLIRDSQPSDSATYLCAVLRSNDYKLSFGAGTTVTVRA
Vbeta: EAQVTQNPRYLITVTGKKLTVTCSQNMNHEYMSWYRQDPGLGLRQIYYSMNVEVTDKGDVPEGYKVSRKEKRNFPLILESPSPNQTSLYFCASSPGTSGNEQFFGPGTRLTVL
B19: nwTCR-2720 (TCR, V domains shown)
Valpha: SQQGEEDPQALSIQEGENATMNCSYKTSINNLQWYRQNSGRGLVHLILIRSNEREKHSGRLRVTLDTSKKSSSLLITASRAADTASYFCATDLSGAGSYQLTFGKGTKLSVIP
Vbeta: B18 Vbeta with P95L, S98G, G99F, N100G, Q102L, P106E, T108S
B20: nwTCR-2383 (TCR, V domains shown)
Valpha: B7 Valpha with L90M, A91P, P92S
Vbeta: B18 Vbeta with G96S, T97S, S98G, G99Y
B21: nwTCR-2169 (TCR, V domains shown)
Valpha: SQQGEEDPQALSIQEGENATMNCSYKTSINNLQWYRQNSGRGLVHLILIRSNEREKHSGRLRVTLDTSKKSSSLLITASRAADTASYFCATLTLNDYKLSFGAGTTVTVRA
Vbeta: EAQVTQNPRYLITVTGKKLTVTCSQNMNHEYMSWYRQDPGLGLRQIYYSMNVEVTDKGDVPEGYKVSRKEKRNFPLILESPSPNQTSLYFCATQWASGSTDTQYFGPGTRLTVL
B22: nwTCR-2228 (TCR, V domains shown)
Valpha: QKEVEQNSGPLSVPEGAIASLNCTYSDRGSQSFFWYRQYSGKSPELIMFIYSNGDKEDGRFTAQLNKASQYVSLLIRDSQPSDSATYLCAGHTGNQFYFGTGTSLTVIP
Vbeta: EPEVTQTPSHQVTQMGQEVILRCVPISNHLYFYWYRQILGQKVEFLVSFYNNEISEKSEIFDDQFSVERPDGSNFTLKIRSTKLEDSAMYFCASREDGYEQYFGPGTRLTVT

Biological target: T1, PRAME peptide on HLA-A*02:01
Experiment: multimer staining

Binding result, recognises:
B1
B2
B3
B4
B5
B6
B7
B8
B9
B10
B11
B12
B13
B14
B15
B16
B17
B18
B19
B20
B21
B22
